Reference: patent US11612662B2, “Multi-arm polymeric prodrug conjugates of pemetrexed-based compounds” (priority 2010, dated 2023)

Experiments:
in vivo = conditions: for maximum treatment-related body weight loss / time to recover lost body weight / Days of Deaths (s = surviving at study end) / tolerability of the dosage level / common clinical signs / necropsy findings / Max. Mean Body Weight change during Rx (%) / % Rx Related Deaths / Day of Max. Mean Body Weight Loss (body weight nadir): low folate diet; for Days of Deaths (s = surviving at study end): five mice listed singly; for tolerability of the dosage level: tolerated if treatment-related weight loss <20%; for % Rx Related Deaths / Day of Max. Mean Body Weight Loss (body weight nadir): once each day for ten days
Procedure: The purpose of this study was to determine the maximum tolerated dose for pemetrexed (PMX), Compound 20a (from Example 1), Compound 20b (from Example 1), Compound 20c (from Example 1), and Compound 20d (from Example 1) in female SCID mice fed a low folate diet. All compounds were administered intravenously, once each day, for ten consecutive days.
Calculations were made to provide “dose equivalents” between PMX, Compound 20a, Compound 20b, Compound 20c and Compound 20d, which “dose equivalents” along with the “actual dose” administered are provided in Table 2. All dosagese in this example are expressed in terms of “dose equivalents” and adjustments were made for excipients, salts and hydration state.
Female SCID mice (HsdIcr:Ha (ICR)-Prkdc-scid) were obtained from Harlan. They were seven weeks old on Day 1 of the experiment. The mice in Groups 1 and 2 were fed irradiated Rodent Diet 5053 (LabDiet™). The mice in Groups 3 through 19 were fed irradiated Folic Acid Deficient Purina TestDiet supplemented with 1% succinylsufathiazol from 14 days prior to dosing until 14 days after dosing was completed, at which time the study was terminated and the mice were then euthanized. All groups received drinking water ad libitum. Mice were housed in static cages in clean rooms that provide H.E.P.A filtered air into the environment at 100 complete air changes per hour. All treatments, body weight determinations, and tumor measurements were carried out in the environment. The environment was controlled to a temperature range of 70°±2° F. and a humidity range of 30-70%. […] Mice found in obvious distress or in a moribund condition were euthanized. The study was carried out in an AAALAC accredited facility.
Treatments began on Day 1. […] Mice in Groups 3 through 19 were fed irradiated Folic Acid Deficient Purina TestDiet with 1% Succinylsufathiazol for 14 days prior to dosing as well as throughout the entire experiment. All mice were dosed according to individual body weight on the day of treatment (0.2 ml/20 g).
Mice were weighed on each day of treatment and at least three times weekly thereafter. Individual body weights were recorded three times weekly. […] In this report, a dosage level is described as tolerated if treatment-related weight loss (during and two weeks after treatment) is <20%. Upon death or euthanasia, all mice were necropsied to provide a general assessment of potential cause of death and perhaps target organs for toxicity.

xenograft = test: In vivo xenograft study; parameters: species or system female athymic nu/nu mice; conditions: as of day 26; intravenously, at 80% and at 50% of the single dose maximum tolerated dose
Procedure: Briefly, for run of the experiment, a previously untreated group of 8-12 week old mice was intravenously administered a test article prepared in saline and diluted to appropriate concentrations to allow administration volumes of a maximum of 20 mL/kg. Each compound of interest was tested twice: once at 80% of the maximum tolerated dose and once at 50% of the maximum tolerated (maximum tolerated doses calculated on the single dose maximum tolerated dose study).
Mice were observed daily for clinical signs and body weights were recorded daily (except on weekend days) then biweekly until the end of study. Dosing was terminated for any group in which mean weight loss exceeded 20% or >10% of animals died. Moribund animals were euthanized.

[1] = Single dose maximum tolerated dose study; format: in vivo, mice; conditions: single intravenous dose; for Single dose MTD: dose equivalents
Procedure: Because of too much efficacy of daily dosing for ten days in a pilot xenograft study (likely due to the effects of repeated dosing), a single dose maximum tolerated dose study was conducted using a method similar to that provided in Example 3 in order to have a better dosing schedule for a comparative xenograft study.

[2] = 3.75 mg/kg/inj dose equivalents
[3] = intravenously once each day for ten days, 1 mg/kg/inj dose equivalents
[4] = intravenously once each day for ten days, 3.75 mg/kg/inj dose equivalents
[5] = intravenously once each day for ten days, 15 mg/kg/inj dose equivalents

4-arm-PEG30k-γ-amide-Pemetrexed Conjugate [Compound 20c]
maximum treatment-related body weight loss (in vivo; 1 mg/kg): 4.8% | time to recover lost body weight (in vivo; 1 mg/kg): 5.5 days | Days of Deaths (s = surviving at study end) (in vivo; 1 mg/kg/inj dose equivalents): s, s, s, s, s | tolerability of the dosage level (in vivo; 1 mg/kg): tolerated | maximum treatment-related body weight loss (in vivo; 3.75 mg/kg): 1.4% | time to recover lost body weight (in vivo; 3.75 mg/kg): 2.2 days | Days of Deaths (s = surviving at study end) (in vivo; [2]): s, s, s, s, s | tolerability of the dosage level (in vivo; 3.75 mg/kg): tolerated | maximum treatment-related body weight loss (in vivo; 15 mg/kg): 18.8% | time to recover lost body weight (in vivo; 15 mg/kg): not recovered prior to study termination | tolerability of the dosage level (in vivo; 15 mg/kg): toxic | common clinical signs (in vivo; dosage levels found tolerated): Rough pelage | necropsy findings (in vivo; dosage levels found tolerated): no significant findings | necropsy findings (in vivo; dosage levels found toxic): Necrotic intestines | Max. Mean Body Weight change during Rx (%) (in vivo; [3]): −4.8% | Max. Mean Body Weight change during Rx (%) (in vivo; [4]): −1.4% | Max. Mean Body Weight change during Rx (%) (in vivo; [5]): −22.0% | % Rx Related Deaths (in vivo; 1 mg/kg/inj dose equivalents): 0% | Day of Max. Mean Body Weight Loss (body weight nadir) (in vivo; 1 mg/kg/inj dose equivalents): 10 | % Rx Related Deaths (in vivo; [2]): 0% | Day of Max. Mean Body Weight Loss (body weight nadir) (in vivo; [2]): 5 | % Rx Related Deaths (in vivo; 15 mg/kg/inj dose equivalents): 20% | Day of Max. Mean Body Weight Loss (body weight nadir) (in vivo; 15 mg/kg/inj dose equivalents, 15 mg/kg): 19 | tumor volume compared with saline control (xenograft): significantly less tumor volume than saline control | tumor volume compared with the other articles tested (xenograft): lowest tumor volumes of all articles tested | Single dose MTD [1]: <40 | BWL (body weight loss) ([1]; tested dose (equiv) 40): −19.6% | day (of body weight loss) ([1]; tested dose (equiv) 40): 9 | mean day of death ([1]; tested dose (equiv) 40): 12 | treatment-related deaths ([1]; tested dose (equiv) 40): 5 | BWL (body weight loss) ([1]; tested dose (equiv) 70): −25.0% | day (of body weight loss) ([1]; tested dose (equiv) 70): 9 | mean day of death ([1]; tested dose (equiv) 70): 10.5 | treatment-related deaths ([1]; tested dose (equiv) 70): 2 | BWL (body weight loss) ([1]; tested dose (equiv) 95): −27.1% | day (of body weight loss) ([1]; tested dose (equiv) 95): 7 | mean day of death ([1]; tested dose (equiv) 95): 9 | treatment-related deaths ([1]; tested dose (equiv) 95): 3 | BWL (body weight loss) ([1]; tested dose (equiv) 125): −25.3% | day (of body weight loss) ([1]; tested dose (equiv) 125): 9 | mean day of death ([1]; tested dose (equiv) 125): 10.5 | treatment-related deaths ([1]; tested dose (equiv) 125): 2

4-arm-PEG40k-γ-amide-Pemetrexed Conjugate [Compound 20d]
maximum treatment-related body weight loss (in vivo; 1 mg/kg): 0.9% | time to recover lost body weight (in vivo; 1 mg/kg): 0.8 days | Days of Deaths (s = surviving at study end) (in vivo; 1 mg/kg/inj dose equivalents): s, s, s, s, s | tolerability of the dosage level (in vivo; 1 mg/kg): tolerated | maximum treatment-related body weight loss (in vivo; 3.75 mg/kg): 4.5% | time to recover lost body weight (in vivo; 3.75 mg/kg): 11.3 days | Days of Deaths (s = surviving at study end) (in vivo; [2]): s, s, s, s, s | tolerability of the dosage level (in vivo; 3.75 mg/kg): tolerated | maximum treatment-related body weight loss (in vivo; 15 mg/kg): 28.8% | time to recover lost body weight (in vivo; 15 mg/kg): not recovered prior to study termination | tolerability of the dosage level (in vivo; 15 mg/kg): toxic | common clinical signs (in vivo; dosage levels found tolerated): Rough pelage | necropsy findings (in vivo; dosage levels found tolerated): Nothing significant | common clinical signs (in vivo; dosage levels found toxic): Rough pelage | necropsy findings (in vivo; dosage levels found toxic): Nothing significant | Max. Mean Body Weight change during Rx (%) (in vivo; [3]): −0.9% | Max. Mean Body Weight change during Rx (%) (in vivo; [4]): −4.5% | Max. Mean Body Weight change during Rx (%) (in vivo; [5]): −28.8% | Day of Max. Mean Body Weight Loss (body weight nadir) (in vivo; 1 mg/kg/inj dose equivalents): 5 | Day of Max. Mean Body Weight Loss (body weight nadir) (in vivo; [2]): 5 | % Rx Related Deaths (in vivo; 15 mg/kg/inj dose equivalents): 40% | Day of Max. Mean Body Weight Loss (body weight nadir) (in vivo; 15 mg/kg/inj dose equivalents): 15 | MTD (maximum tolerated dose) (in vivo; mice fed a folate deficient diet, intravenously once each day for ten days, dose equivalents): 3.75 to 15 mg/kg | tumor volume compared with saline control (xenograft): significantly less tumor volume than saline control | tumor volume compared with the other articles tested (xenograft): lowest tumor volumes of all articles tested | Single dose MTD ([1]; in mg/kg): ~40 | BWL (body weight loss) ([1]; tested dose (equiv) 40): −12.6% | day (of body weight loss) ([1]; tested dose (equiv) 40): 7 | treatment-related deaths ([1]; tested dose (equiv) 40): 0 | BWL (body weight loss) ([1]; tested dose (equiv) 60): −20.8% | day (of body weight loss) ([1]; tested dose (equiv) 60): 9 | treatment-related deaths ([1]; tested dose (equiv) 60): 0 | BWL (body weight loss) ([1]; tested dose (equiv) 90): −21.4% | day (of body weight loss) ([1]; tested dose (equiv) 90): 9 | mean day of death ([1]; tested dose (equiv) 90): 12 | treatment-related deaths ([1]; tested dose (equiv) 90): 1 | BWL (body weight loss) ([1]; tested dose (equiv) 125): −21.8% | day (of body weight loss) ([1]; tested dose (equiv) 125): 6 | mean day of death ([1]; tested dose (equiv) 125): 7 | treatment-related deaths ([1]; tested dose (equiv) 125): 5
